First the molecules themselves.
T1: human CD20 (human, UniProt P11836 1-297)
T1 construct: whole, on cells; also called human B-lymphocyte-restricted differentiation antigen; Bp35
T1 sequence (looked up): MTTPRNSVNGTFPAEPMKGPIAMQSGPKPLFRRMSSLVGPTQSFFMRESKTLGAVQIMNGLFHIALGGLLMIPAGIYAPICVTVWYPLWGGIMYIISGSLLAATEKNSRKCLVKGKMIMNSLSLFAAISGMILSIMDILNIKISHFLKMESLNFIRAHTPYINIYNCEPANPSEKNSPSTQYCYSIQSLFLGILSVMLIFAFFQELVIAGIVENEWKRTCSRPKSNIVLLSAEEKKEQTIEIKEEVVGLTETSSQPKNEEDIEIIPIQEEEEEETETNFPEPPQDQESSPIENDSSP

B1: 1F5RHA x chimeric c1F5VK (antibody, human IgG1, kappa, V domains shown)
VH: QVQLVQSGAEVKKPGASVKVSCKASGYTFTSYNMHWVRQAPGQRLEWIGAIYPGNGDTSYNQKFKGRVTVTRDTSANTAYMELSSLKSEDTAVYYCARSHYGSNYVDYFDYWGQGTLVTVSS
VL: QIVLSQSPAILSASPGEKVTMTCRASSSLSFMHWYQQKPGSSPKPWIYATSNLASGVPARFSGSGSGTSYSLTISRVEAEDAATYFCHQWSSNPLTFGAGTKVEIKR
notes: IgG1 kappa from HEK293T conditioned medium; also called chimeric VK x 1F5RHA
B2: chimeric c1F5VH x 1F5RKB11 (antibody, human IgG1, kappa, V domains shown)
VH: QVQLRQPGAELVKPGASVKMSCKASGYTFTSYNMHWVKQTPGQGLEWIGAIYPGNGDTSYNQKFKGKATLTADKSSSTAYMQLSSLTSEDSAVYYCARSHYGSNYVDYFDYWGQGTLVTVST
VL: EIVLTQSPSSLSASVGDRVTITCRASSSLSFMHWYQQKPGKAPKPWIYATSNLASGVPSRFSGSGSGTDYTLTISSLQPEDFATYFCHQWSSNPLTFGGGTKVEIKR
notes: IgG1 kappa from HEK293T conditioned medium; also called chimeric VH x 1F5RKB11
B3: 1F5RHB x chimeric c1F5VK (antibody, human IgG1, kappa, V domains shown)
VH: B1 VH with V68A, V70L, R72A, T74K
VL: B1 VL
notes: 1F5RHB is 1F5RHA with four back mutations
B4: chimeric c1F5VH x 1F5RKB12 (antibody, human IgG1, kappa, V domains shown)
VH: B2 VH
VL: EIVLTQSPGTLSLSPGERATLSCRASSSLSFMHWYQQKPGQAPRPWIYATSNLASGIPARFSGSGSGTDYTLTISRLEPEDFAVYFCHQWSSNPLTFGQGTKVELKR
notes: IgG1 kappa from HEK293T conditioned medium
B5: rituximab (antibody, V domains shown)
VH: QVQLQQPGAELVKPGASVKMSCKASGYTFTSYNMHWVKQTPGRGLEWIGAIYPGNGDTSYNQKFKGKATLTADKSSSTAYMQLSSLTSEDSAVYYCARSTYYGGDWYFNVWGAGTTVTVSA
VL: QIVLSQSPAILSASPGEKVTMTCRASSSVSYIHWFQQKPGSSPKPWIYATSNLASGVPVRFSGSGSGTSYSLTISRVEAEDAATYYCQQWTSNPPTFGGGTKLEIK
B6: 1F5RHA x 1F5RKB11 (antibody, human IgG1, kappa, V domains shown)
VH: B1 VH
VL: B2 VL
notes: also called RHA x RKB11; Variant D
B7: 1F5RHA x 1F5RKB12 (antibody, human IgG1, kappa, V domains shown)
VH: B1 VH
VL: B4 VL
notes: also called RHA x RKB12; Variant F
B8: 1F5RHA x 1F5RKG11 (antibody, human IgG1, kappa, V domains shown)
VH: B1 VH
VL: B2 VL with W46L, Y70F, F86Y
notes: also called RHA x RKG11; 1F5RKG11 x 1F5RHA
B9: 1F5RHA x 1F5RKF12 (antibody, human IgG1, kappa, V domains shown)
VH: B1 VH
VL: B4 VL with W46L, Y70F
notes: also called RHA x RKF12; 1F5RKF12 x 1F5RHA
B10: chimeric antibody c1F5 (c1F5VH x c1F5VK) (antibody, human IgG1, kappa, V domains shown)
VH: B2 VH
VL: B1 VL
notes: Mouse 1F5 variable regions on human gamma1 / kappa constant regions; also called chimeric 1F5

Substitutions are numbered along the chain they refer to.

The target of one test is T1, human CD20. Briefly: ELISA on fixed Raji cells (CD20+), anti-human kappa detection. As to the method:
Raji cells (80 μl; 1-2×10⁶ cells/ml in 24 ml with fresh growth medium diluted with 0.11 vol of 10×PBS (MPBS) and 8 ml 8% paraformaldehyde (in PBS)) were added to 96-well poly-D-lysine-coated plate and centrifuged at 2500 rpm (Beckman 6L) at 25° C. for 60 minutes. The pellets were washed 4 times with 400 μl PBS, Tween 20 (0.02% v/v). 50 μl of MPBS was added to each well after the final wash, and incubated for 1 hour at room temperature, and the blocking buffer was then discarded. Serial dilutions of the 1F5 antibodies were prepared in MPBS in a separate 96-well plate, transferred to the Raji-cell coated plate and incubated at room temperature for 1 hour. The antibody solution was then discarded and the plates were washed 6 times with 400 μl PBS buffer. Goat anti-human kappa (Sigma A7164) was prepared by diluting the stock antibody solution 1:2000 in MPBS, added to the washed wells, and incubated again at room temperature for 1 hour. The plates were again washed 6 times in 400 μl PBS buffer. 100 μl of K-blue TMB solution was added to each well. The reactions were stopped by added 50 μl red stop after 30 minutes, and the absorbance was read at 650 nm.
For the molecule B1, the binding result is on record as “binds”.
With B2, the binding result is on record as “binds”.
Regarding B3, the binding result is listed as “binds”.
In the case of B4, the binding result is “binds”.

Another test addresses T1, human CD20. Kind of test: dissociation of DyLight 488-labelled antibody from Raji cells at 37 C in excess unlabelled antibody, FACS MFI; average of Studies 1 and 2. Also noted: unit not given here. As to the method:
(§1) All antibodies were conjugated to a fluorescein-like fluorophore, DyLight 488, according to vendor instructions (Pierce Cat. No. 53025). Following conjugation, labeled antibody was separated from free dye using chromatography columns provided in the labeling kit. […] Purified labeled antibodies were stored at 4° C. in PBS protected from light.
(§2) To measure antibody dissociation from cells, 10⁶ Raji cells were suspended in PBS containing 1% bovine serum albumin (PBS/BSA). Labeled antibody was added to a final concentration of 5 ug/ml in a volume of 1.0 ml. Following a 30 minute incubation at 37° C., unlabeled (“cold”) antibody was added to a final concentration of 1000 ug/ml. Labeled cells mixed with cold antibody were returned to 37° C. for 4 hours. At 20-minute intervals, 100 ul aliquots of cells were withdrawn from each sample, 400 uL cold PBS/BSA containing propidium iodide was added and mean fluorescence intensity (MFI) of the cell population excluding dead cells (PI⁺) determined by FACS.
For B5, the “Half-life (dissociation from Raji cells), average” value (“Half-life … average” below) amounted to 24.
Regarding B6, the “Half-life … average” value was 52.
For the molecule B7, the “Half-life … average” value amounted to 68.
As to B8, the “Half-life … average” value was determined as 65.
The same measure, in the same setting: as for B9, the figure is 66; as for B10, 58.

In the next test the target is T1, human CD20. Briefly: cell-based or functional assay.
Turning to B8, the “complement dependent cytotoxicity (CDC) on Raji cells, relative to rituximab” value was around 10 times less than rituximab.

A further test has as its target T1, human CD20. Briefly: dissociation of DyLight 488-labelled antibody from Raji cells at 37 C in excess unlabelled antibody, FACS MFI; Study 2. Set-up: unit not given here. As to the method: as §1, §2
In the case of B5, the “Half-life (dissociation from Raji cells)” value was determined as 24.
Take B6: the “Half-life (dissociation from Raji cells)” value is 59.
For the molecule B7, the “Half-life (dissociation from Raji cells)” value came out at 64.
As for B8, the “Half-life (dissociation from Raji cells)” value stood at 63.
With B9, the “Half-life (dissociation from Raji cells)” value was 65.
As to B10, the “Half-life (dissociation from Raji cells)” value was 57.

For the next test, the target named is T1, human CD20. Briefly: dissociation of DyLight 488-labelled antibody from Raji cells at 37 C in excess unlabelled antibody, FACS MFI; Study 1. Set-up: unit not given here. As to the method: as §1, §2
Turning to B5, the “Half-life (dissociation from Raji cells)” value was found to be 24.
As to B6, the “Half-life (dissociation from Raji cells)” value turned out to be 44.
The same measure, in the same setting: the same measure for B7: 72.
For the molecule B8, the “Half-life (dissociation from Raji cells)” value worked out at 67.
The same measure, in the same setting: as for B9, the figure is 67; as for B10, 59.

Another test addresses T1, human CD20. Briefly: cell-based or functional assay. The source holds these as a separate data set.
As to B5, the “LogEC50, complement dependent cytotoxicity (CDC) on Raji cells” value is -1.73.
Still for that read-out and setting: the same measure for B6: -1.06; for B7: -1.13; for B8: -0.773.
On to B9, for which the “LogEC50, complement dependent cytotoxicity (CDC) on Raji cells” value is -1.15.
Same read-out and setting: as for B10, the figure is -0.781.

The values above are taken from patent US20100303808A1 (published 2010).
